The values below come from US20170002055A1, “Novel peptides and combination of peptides for use in immunotherapy against ovarian cancer and other cancers” (immatics biotechnologies GmbH, priority 2015, published 2017).

The target of this experiment is HLA-A*02:01 (Homo sapiens, UniProt P04439, D140Y/D185E/D98H/E176V/E277Q/G131W/G231S/I119V/I121R/I166T/I218V/L300P/L318F/N151K/N90K/P208A/P217A/Q86G/Q94H/R138H/R169H/T345S). In words: MHC binding assay (UV-ligand exchange, β2m ELISA, peptide exchange yield). Particulars: MHC class I binding score; binding to HLA-A*02:01 ranged by peptide exchange yield (UV-ligand exchange, β2m ELISA). Put shortly: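 Peptide–HLA-A*02:01 complexes were formed by UV-mediated exchange of a UV-cleavable ligand for the test peptide. Exchange yield was measured by capturing complexes on streptavidin, detecting with HRP anti-β2m antibody (1 h, 37°C) and reading TMB absorbance at 450 nm.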
In the case of “570 (ALANQIPTV; listed as Homo sapiens) [compound 570]”, the Peptide exchange entry is reported as ““++” (≧20% = ++)”.

Take “571 (LLLTTIPQI; listed as Homo sapiens) [compound 571]”: the Peptide exchange result is given as ““+++” (≧50 = +++)”.

For the substance “572 (ALADLIEKELSV; listed as Homo sapiens) [compound 572]”, the Peptide exchange result is listed as ““+++” (≧50 = +++)”.

Take “573 (ILVANAIVGV; listed as Homo sapiens) [compound 573]”: the Peptide exchange result is ““+++” (≧50 = +++)”.

Consider “574 (YLLQEPPRTV; listed as Homo sapiens) [compound 574]”, for which the Peptide exchange entry is given as ““++” (≧20% = ++)”.

As to “575 (YLISQVEGHQV; listed as Homo sapiens) [compound 575]”, the Peptide exchange entry is given as ““+++” (≧50 = +++)”.

Regarding “576 (ILLNNSGQIKL; listed as Homo sapiens) [compound 576]”, the Peptide exchange result was ““++++” (≧75% = ++++)”.

On to “577 (VMFEDGVLMRL; listed as Homo sapiens) [compound 577]”, for which the Peptide exchange result was ““+++” (≧50 = +++)”.

As for “578 (FLDPGGPMMKL; listed as Homo sapiens) [compound 578]”, the Peptide exchange entry is reported as ““+++” (≧50 = +++)”.

“579 (NLMEMVAQL; listed as Homo sapiens) [compound 579]”: the Peptide exchange result is reported as ““++” (≧20% = ++)”.

Consider “580 (LLMENAERV; listed as Homo sapiens) [compound 580]”, for which the Peptide exchange result is listed as ““++” (≧20% = ++)”.

Regarding “582 (TLCDVILMV; listed as Homo sapiens) [compound 582]”, the Peptide exchange entry was ““+++” (≧50 = +++)”.

With “583 (ILANDGVLLAA; listed as Homo sapiens) [compound 583]”, the Peptide exchange entry is ““+++” (≧50 = +++)”.

“584 (ALAEVAAMENV; listed as Homo sapiens) [compound 584]”: the Peptide exchange entry is on record as ““+++” (≧50 = +++)”.

“585 (ALWDLAADKQTL; listed as Homo sapiens) [compound 585]”: the Peptide exchange entry is reported as ““++++” (≧75% = ++++)”.

For the substance “586 (KLKPGDLVGV; listed as Homo sapiens) [compound 586]”, the Peptide exchange entry is listed as ““+++” (≧50 = +++)”.

As for “587 (VMNDRLYAI; listed as Homo sapiens) [compound 587]”, the Peptide exchange entry is on record as ““+++” (≧50 = +++)”.

Turning to “588 (SLLPLSHLV; listed as Homo sapiens) [compound 588]”, the Peptide exchange result is given as ““+++” (≧50 = +++)”.

In the case of “589 (KLYPQLPAEI; listed as Homo sapiens) [compound 589]”, the Peptide exchange result is listed as ““+++” (≧50 = +++)”.

For the substance “590 (SLIEKLWQT; listed as Homo sapiens) [compound 590]”, the Peptide exchange result is on record as ““++” (≧20% = ++)”.

Regarding “591 (SMAELDIKL; listed as Homo sapiens) [compound 591]”, the Peptide exchange entry is listed as ““+++” (≧50 = +++)”.

Consider “592 (RLLSAAENFL; listed as Homo sapiens) [compound 592]”, for which the Peptide exchange entry is ““+++” (≧50 = +++)”.

Turning to “593 (GLPRFGIEMV; listed as Homo sapiens) [compound 593]”, the Peptide exchange entry is ““+++” (≧50 = +++)”.

For “594 (IMLKGDNITL; listed as Homo sapiens) [compound 594]”, the Peptide exchange entry is ““+++” (≧50 = +++)”.

As for “595 (VLLSIYPRV; listed as Homo sapiens) [compound 595]”, the Peptide exchange result is ““+++” (≧50 = +++)”.

For the substance “596 (ALLDQTKTLAESAL; listed as Homo sapiens) [compound 596]”, the Peptide exchange result was ““+++” (≧50 = +++)”.

Regarding “597 (KLLEGQVIQL; listed as Homo sapiens) [compound 597]”, the Peptide exchange result is given as ““+++” (≧50 = +++)”.

For “598 (FLFPHSVLV; listed as Homo sapiens) [compound 598]”, the Peptide exchange result was ““+++” (≧50 = +++)”.

In the case of “599 (YLLNDASLISV; listed as Homo sapiens) [compound 599]”, the Peptide exchange entry is ““+++” (≧50 = +++)”.

On to “600 (ALAAPDIVPAL; listed as Homo sapiens) [compound 600]”, for which the Peptide exchange entry is ““+++” (≧50 = +++)”.

Regarding “601 (SAFPFPVTV; listed as Homo sapiens) [compound 601]”, the Peptide exchange entry is given as ““+++” (≧50 = +++)”.

In the case of “602 (YLLEQIKLIEV; listed as Homo sapiens) [compound 602]”, the Peptide exchange result was ““++++” (≧75% = ++++)”.

In the case of “604 (SILDRDDIFV; listed as Homo sapiens) [compound 604]”, the Peptide exchange result is given as ““+++” (≧50 = +++)”.

For “605 (KLYEAVPQL; listed as Homo sapiens) [compound 605]”, the Peptide exchange result is on record as ““+++” (≧50 = +++)”.

Turning to “606 (ALWETEVYI; listed as Homo sapiens) [compound 606]”, the Peptide exchange result is ““+++” (≧50 = +++)”.

For the substance “607 (RLYSGISGLEL; listed as Homo sapiens) [compound 607]”, the Peptide exchange entry is listed as ““+++” (≧50 = +++)”.

On to “608 (SLLSVSHAL; listed as Homo sapiens) [compound 608]”, for which the Peptide exchange result is ““+++” (≧50 = +++)”.

With “609 (ALWKQLLEL; listed as Homo sapiens) [compound 609]”, the Peptide exchange entry was ““+++” (≧50 = +++)”.

For the substance “610 (LLAPTPYIIGV; listed as Homo sapiens) [compound 610]”, the Peptide exchange entry is recorded as ““+++” (≧50 = +++)”.

Take “611 (YLLDDGTLVV; listed as Homo sapiens) [compound 611]”: the Peptide exchange entry is ““++++” (≧75% = ++++)”.

For the substance “612 (YLYNEGLSV; listed as Homo sapiens) [compound 612]”, the Peptide exchange entry was ““+++” (≧50 = +++)”.

As to “613 (RLLPPGAVVAV; listed as Homo sapiens) [compound 613]”, the Peptide exchange result is reported as ““+++” (≧50 = +++)”.

“614 (LLLPDQPPYHL; listed as Homo sapiens) [compound 614]”: the Peptide exchange entry is on record as ““+++” (≧50 = +++)”.

With “615 (VLPPDTDPA; listed as Homo sapiens) [compound 615]”, the Peptide exchange entry is recorded as ““++” (≧20% = ++)”.

Regarding “616 (VLIDEVESL; listed as Homo sapiens) [compound 616]”, the Peptide exchange entry was ““+++” (≧50 = +++)”.

As to “617 (ALMYESEKVGV; listed as Homo sapiens) [compound 617]”, the Peptide exchange entry is reported as ““+++” (≧50 = +++)”.

For “618 (VLFDSESIGIYV; listed as Homo sapiens) [compound 618]”, the Peptide exchange entry was ““+++” (≧50 = +++)”.

As to “619 (ALQDRVPLA; listed as Homo sapiens) [compound 619]”, the Peptide exchange entry is ““+++” (≧50 = +++)”.

With “620 (KLLNKIYEA; listed as Homo sapiens) [compound 620]”, the Peptide exchange entry is given as ““++++” (≧75% = ++++)”.

Consider “621 (VLMDRLPSLL; listed as Homo sapiens) [compound 621]”, for which the Peptide exchange entry was ““++++” (≧75% = ++++)”.

As to “622 (RLLGEEVVRVLQA; listed as Homo sapiens) [compound 622]”, the Peptide exchange result is listed as ““+++” (≧50 = +++)”.

Turning to “623 (YLVEDIQHI; listed as Homo sapiens) [compound 623]”, the Peptide exchange result is on record as ““+++” (≧50 = +++)”.

Consider “635 (SLDSTLHAV; listed as Homo sapiens) [compound 635]”, for which the Peptide exchange entry is reported as ““+++” (≧50 = +++)”.
